Laboratory results published in US20080044360A1 (COLLAGEN MEDICAL, published 2008).
Bridge positions count the residues as written; N and C are the ends. Square brackets hold non-standard residues; d marks the D form. Primed or numbered codes have the meaning given here. Side chains are listed from the residue outwards. Ends that are not written are not given here. * marks the point of attachment. Tyr(3-NO2) = N[C@@H](Cc1ccc(O)c([N+](=O)[O-])c1)C(=O)O; Phe(4-tBu) = CC(C)(C)c1ccc(C[C@H](N)C(=O)O)cc1; Tyr(3-Cl) = N[C@@H](Cc1ccc(O)c(Cl)c1)C(=O)O; Bip = N[C@@H](Cc1ccc(-c2ccccc2)cc1)C(=O)O; Tyr(3-I) = N[C@@H](Cc1ccc(O)c(I)c1)C(=O)O; Dip = N[C@H](C(=O)O)C(c1ccccc1)c1ccccc1; Phe(4-NH2) = Nc1ccc(C[C@H](N)C(=O)O)cc1; Gd^T(3) = GdDTPA attached via thiourea; d1Nal = N[C@H](Cc1cccc2ccccc12)C(=O)O; Lys(Gd^T)Gd^T = not defined here; Pen = CC(C)(S)[C@H](N)C(=O)O; Gd^G = not defined here; Gd^T = not defined here; Gd^T″ = GdDTPA-thiourea; Cbz = O=C(OCc1ccccc1)*; Dap = NC[C@H](N)C(=O)O

Assays:
[1] = biological target: T1, human collagen type I, acid soluble, extracted from placenta (Sigma C7774) (human, UniProt P02452 162-1218; P08123 80-1119); assay: dried collagen assay
T1 construct: tissue extract, gelled and dried in wells; also called dried human collagen; h-Collagen

[2] = biological target: T2, rat collagen, acid soluble, type I, rat tail (Upstate 08-115) (rat, UniProt P02454 152-1207; P02466 86-1125); assay: dried collagen assay
T2 construct: tissue extract, gelled and dried in wells; also called dried rat collagen
T2 sequence (P02454 152-1207, chain 1 of 2): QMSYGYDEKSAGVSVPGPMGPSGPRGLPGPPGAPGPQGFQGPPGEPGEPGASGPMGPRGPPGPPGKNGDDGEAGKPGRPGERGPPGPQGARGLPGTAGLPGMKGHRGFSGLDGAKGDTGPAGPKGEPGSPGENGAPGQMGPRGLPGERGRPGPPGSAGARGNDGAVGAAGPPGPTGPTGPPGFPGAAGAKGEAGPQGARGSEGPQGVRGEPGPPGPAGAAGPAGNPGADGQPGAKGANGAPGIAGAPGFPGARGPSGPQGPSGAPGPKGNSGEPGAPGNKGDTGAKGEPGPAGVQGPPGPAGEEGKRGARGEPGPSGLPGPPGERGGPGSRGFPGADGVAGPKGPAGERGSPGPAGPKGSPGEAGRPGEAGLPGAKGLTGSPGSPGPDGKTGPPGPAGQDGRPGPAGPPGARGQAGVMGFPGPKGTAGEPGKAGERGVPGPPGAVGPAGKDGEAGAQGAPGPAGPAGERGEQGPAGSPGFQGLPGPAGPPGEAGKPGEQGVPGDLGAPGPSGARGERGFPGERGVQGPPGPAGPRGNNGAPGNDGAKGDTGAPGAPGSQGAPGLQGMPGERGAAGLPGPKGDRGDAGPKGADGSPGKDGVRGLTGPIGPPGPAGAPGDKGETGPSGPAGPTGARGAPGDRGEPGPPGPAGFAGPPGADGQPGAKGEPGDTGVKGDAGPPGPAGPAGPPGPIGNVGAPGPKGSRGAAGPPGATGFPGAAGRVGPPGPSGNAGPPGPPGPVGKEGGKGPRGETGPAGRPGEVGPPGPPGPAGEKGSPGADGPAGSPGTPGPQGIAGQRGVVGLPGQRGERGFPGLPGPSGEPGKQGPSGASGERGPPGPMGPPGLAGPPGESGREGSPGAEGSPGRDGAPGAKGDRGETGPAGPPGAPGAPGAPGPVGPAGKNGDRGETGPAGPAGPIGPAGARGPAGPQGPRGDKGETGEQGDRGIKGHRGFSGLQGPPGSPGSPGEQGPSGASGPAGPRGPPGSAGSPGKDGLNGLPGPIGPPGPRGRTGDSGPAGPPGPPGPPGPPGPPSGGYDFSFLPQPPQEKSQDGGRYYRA
T2 sequence (P02466 86-1125, chain 2 of 2): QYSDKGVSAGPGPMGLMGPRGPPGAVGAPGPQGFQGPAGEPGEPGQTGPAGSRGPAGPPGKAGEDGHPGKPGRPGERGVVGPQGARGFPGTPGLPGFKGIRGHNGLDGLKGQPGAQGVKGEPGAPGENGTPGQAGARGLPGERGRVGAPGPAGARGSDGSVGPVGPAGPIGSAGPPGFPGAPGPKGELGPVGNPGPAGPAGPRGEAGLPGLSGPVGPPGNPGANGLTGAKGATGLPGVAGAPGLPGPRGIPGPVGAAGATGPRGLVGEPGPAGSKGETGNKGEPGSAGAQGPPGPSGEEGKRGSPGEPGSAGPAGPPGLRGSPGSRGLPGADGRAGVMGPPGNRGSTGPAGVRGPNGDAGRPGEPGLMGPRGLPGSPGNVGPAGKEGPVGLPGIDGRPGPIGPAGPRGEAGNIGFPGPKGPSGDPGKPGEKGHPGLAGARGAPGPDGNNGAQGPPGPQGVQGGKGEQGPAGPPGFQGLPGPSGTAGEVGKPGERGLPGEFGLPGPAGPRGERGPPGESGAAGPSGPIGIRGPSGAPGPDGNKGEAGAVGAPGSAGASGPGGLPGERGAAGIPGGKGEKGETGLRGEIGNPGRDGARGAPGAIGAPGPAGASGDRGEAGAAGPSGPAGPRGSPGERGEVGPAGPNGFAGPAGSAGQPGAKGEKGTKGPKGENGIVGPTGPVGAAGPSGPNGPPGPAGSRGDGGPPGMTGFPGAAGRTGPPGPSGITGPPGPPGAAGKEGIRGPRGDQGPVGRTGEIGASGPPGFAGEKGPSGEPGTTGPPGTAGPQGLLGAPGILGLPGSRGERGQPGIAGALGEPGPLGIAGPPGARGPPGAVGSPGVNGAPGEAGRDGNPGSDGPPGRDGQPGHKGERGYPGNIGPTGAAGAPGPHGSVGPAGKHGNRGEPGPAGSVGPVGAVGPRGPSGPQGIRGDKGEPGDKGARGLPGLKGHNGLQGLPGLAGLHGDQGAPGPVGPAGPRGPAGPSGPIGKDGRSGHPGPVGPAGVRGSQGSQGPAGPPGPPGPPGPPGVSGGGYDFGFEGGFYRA

T1 sequence (P02452 162-1218 limits assumed, chain 1 of 2): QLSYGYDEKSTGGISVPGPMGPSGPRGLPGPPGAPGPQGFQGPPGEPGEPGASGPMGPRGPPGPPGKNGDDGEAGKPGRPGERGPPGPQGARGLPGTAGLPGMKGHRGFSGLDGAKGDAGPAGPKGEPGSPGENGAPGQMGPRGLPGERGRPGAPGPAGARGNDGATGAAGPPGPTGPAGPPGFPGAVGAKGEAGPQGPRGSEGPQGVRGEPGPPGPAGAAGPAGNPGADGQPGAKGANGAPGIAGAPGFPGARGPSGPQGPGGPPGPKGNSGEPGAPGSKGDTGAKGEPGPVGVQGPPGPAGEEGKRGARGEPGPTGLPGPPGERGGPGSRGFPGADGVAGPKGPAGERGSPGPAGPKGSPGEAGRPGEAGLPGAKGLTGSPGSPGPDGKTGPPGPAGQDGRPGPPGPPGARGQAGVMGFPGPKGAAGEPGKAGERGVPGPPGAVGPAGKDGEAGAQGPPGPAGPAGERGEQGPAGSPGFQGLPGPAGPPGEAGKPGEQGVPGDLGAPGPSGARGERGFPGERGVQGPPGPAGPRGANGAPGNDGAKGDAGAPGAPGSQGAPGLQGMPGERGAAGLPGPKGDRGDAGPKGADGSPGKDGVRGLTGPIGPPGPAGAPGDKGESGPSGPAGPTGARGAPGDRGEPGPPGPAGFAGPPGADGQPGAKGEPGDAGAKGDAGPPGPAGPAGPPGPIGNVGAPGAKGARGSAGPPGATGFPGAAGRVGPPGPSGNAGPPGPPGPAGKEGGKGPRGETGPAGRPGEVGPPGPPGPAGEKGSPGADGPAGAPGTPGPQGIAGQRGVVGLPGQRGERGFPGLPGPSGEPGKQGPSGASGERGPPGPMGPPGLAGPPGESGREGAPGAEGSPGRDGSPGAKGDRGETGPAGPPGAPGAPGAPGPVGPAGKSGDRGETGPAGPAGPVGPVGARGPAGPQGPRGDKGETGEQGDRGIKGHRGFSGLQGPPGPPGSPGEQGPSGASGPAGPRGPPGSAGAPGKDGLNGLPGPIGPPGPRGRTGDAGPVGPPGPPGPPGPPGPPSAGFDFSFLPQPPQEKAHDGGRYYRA
T1 sequence (P08123 80-1119 limits assumed, chain 2 of 2): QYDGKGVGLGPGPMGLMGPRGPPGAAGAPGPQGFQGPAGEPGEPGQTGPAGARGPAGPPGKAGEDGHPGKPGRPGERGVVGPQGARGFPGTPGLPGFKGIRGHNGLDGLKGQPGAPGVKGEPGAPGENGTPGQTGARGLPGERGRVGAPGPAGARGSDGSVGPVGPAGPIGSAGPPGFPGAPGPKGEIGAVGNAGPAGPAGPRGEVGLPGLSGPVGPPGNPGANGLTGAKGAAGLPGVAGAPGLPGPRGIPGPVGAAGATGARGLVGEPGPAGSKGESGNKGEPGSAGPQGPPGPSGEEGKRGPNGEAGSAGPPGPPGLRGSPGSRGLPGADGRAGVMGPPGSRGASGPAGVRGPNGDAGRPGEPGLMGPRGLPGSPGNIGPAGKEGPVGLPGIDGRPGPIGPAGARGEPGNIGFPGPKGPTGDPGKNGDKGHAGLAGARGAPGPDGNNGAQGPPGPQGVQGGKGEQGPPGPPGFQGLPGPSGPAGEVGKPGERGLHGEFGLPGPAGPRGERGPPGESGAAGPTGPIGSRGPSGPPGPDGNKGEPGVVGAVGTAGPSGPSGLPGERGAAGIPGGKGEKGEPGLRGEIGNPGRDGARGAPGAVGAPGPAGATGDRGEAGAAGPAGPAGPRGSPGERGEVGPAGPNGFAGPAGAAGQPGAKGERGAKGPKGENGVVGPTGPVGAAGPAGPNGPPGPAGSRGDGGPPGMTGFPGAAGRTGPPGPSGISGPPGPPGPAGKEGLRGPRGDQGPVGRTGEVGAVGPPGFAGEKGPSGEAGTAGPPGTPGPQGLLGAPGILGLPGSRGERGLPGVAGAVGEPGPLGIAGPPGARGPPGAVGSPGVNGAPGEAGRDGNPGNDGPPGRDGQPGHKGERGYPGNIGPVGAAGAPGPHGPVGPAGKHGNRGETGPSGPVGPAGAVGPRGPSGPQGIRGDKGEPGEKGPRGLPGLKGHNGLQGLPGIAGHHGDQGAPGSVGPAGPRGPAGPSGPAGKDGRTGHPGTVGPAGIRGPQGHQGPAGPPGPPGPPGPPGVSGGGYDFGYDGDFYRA

| Binder | % bound [1] [%] | % bound [2] [%] |
| --- | --- | --- |
| {Gd^G}-DWTCS[dR]DEYTWHCNYE (disulfide 4-13 (inferred); not fully specified (C-terminus); reading uncertain) [Compound ID 821] | 56 | 29 |
| {Gd^T″}-DWTCS[dS]DEYTWHCNYE (disulfide 4-13 (inferred); not fully specified (C-terminus)) [Compound ID 836] | 13 | – |
| {Gd^G}-DWTCRGDEYTWHCNYE (disulfide 4-13 (inferred); not fully specified (C-terminus); reading uncertain) [Compound ID 822] | 47 | 20 |
| {Gd^T}-DWTCSGDEYTWYCNYE (disulfide 4-13 (inferred); not fully specified (C-terminus); reading uncertain) [Compound ID 842] | 23 | 9 |
| {Gd^T″}-DWTC[Tyr(Bn,3-Cl)]GDEYTWHCNYE (disulfide 4-13 (inferred); not fully specified (C-terminus)) [Compound ID 825] | 61 | 63 |
| {Gd^T}-DWTC[Tyr(3-NO2)]GDEYTWHCNYE (disulfide 4-13 (inferred); not fully specified (C-terminus); reading uncertain) [Compound ID 843] | 55 | 36 |
| {Gd^T}-DWTCSGDEYRWHCNYE (disulfide 4-13 (inferred); not fully specified (C-terminus); reading uncertain) [Compound ID 845] | 36 | 10 |
| {Gd^T}-DWTCYGDEYTWHCNYE (disulfide 4-13 (inferred); not fully specified (C-terminus); reading uncertain) [Compound ID 844] | 68 | 48 |
| {Gd^T}-DWTCS[dL]DEYTWHCNYE (disulfide 4-13 (inferred); not fully specified (C-terminus); reading uncertain) [Compound ID 847] | 16 | – |
| {Gd^T″}-DWTCS[dY]DEYTWHCNYE (disulfide 4-13 (inferred); not fully specified (C-terminus)) [Compound ID 829] | 20 | 21 |
| {Gd^T″}-DWTC[Phe(4-tBu)]GDEYTWHCNYE (disulfide 4-13 (inferred); not fully specified (C-terminus)) [Compound ID 827] | 41 | 20 |
| {Gd^T″}-GQWTCSGDEYAWHCNY[dE] (disulfide 5-14 (inferred); not fully specified (C-terminus)) [Compound ID 832] | 12 | – |
| {Gd^T}-GQWACSGDEYTWHCNYE (disulfide 5-14 (inferred); not fully specified (C-terminus); reading uncertain) [Compound ID 840] | 15 | – |
| {Gd^T″}-GQWTCSGDEYTWACNYE (disulfide 5-14 (inferred); not fully specified (C-terminus)) [Compound ID 833] | 13 | – |
| {Gd^G}-PWTCSGDEYAWHCNY[dE] (disulfide 4-13 (inferred); not fully specified (C-terminus); reading uncertain) [Compound ID 824] | 12 | 0 |
| {Gd^T″}-DWTC[Phe(4-CO2H)]GDEYTWHCNYE (disulfide 4-13 (inferred); not fully specified (C-terminus)) [Compound ID 828] | 52 | 20 |
| {Gd^T″}-DWTCS[dA]DEYTWHCNYE (disulfide 4-13 (inferred); not fully specified (C-terminus)) [Compound ID 835] | 17 | 9 |
| {Gd^T″}-DWTCSGDEYTWHCN[Tyr(3-I)]E (disulfide 4-13 (inferred); not fully specified (C-terminus)) [Compound ID 831] | 50 | 21 |
| {Gd^T}-DWTCSGDEYTWHCNYE (disulfide 4-13 (inferred); not fully specified (C-terminus); reading uncertain) [Compound ID 848] | 35 | 9 |
| {Gd^T″}-DWTCSGDEYYWHCNYE (disulfide 4-13 (inferred); not fully specified (C-terminus)) [Compound ID 834] | 22 | 9 |
| {Gd^T}-DWTCSGDE[Tyr(3-I)]TWHCNYE (disulfide 4-13 (inferred); not fully specified (C-terminus); reading uncertain) [Compound ID 846] | 31 | 9 |
| {Gd^T″}-GQWHCTTD[Phe(4-NH2)](Gd^T″)PHHYCLYG (disulfide 5-14 (inferred)) [Compound ID 885] | 16 | – |

Further lines, results first:

| % bound [1] [%] | % bound [2] [%] | Binder |
| --- | --- | --- |
| 13 | – | {Gd^T(3)}-GQWHCTTRFPHHY[Pen]LYG (disulfide 5-14; not fully specified (C-terminus)) [Compound ID 906] |
| – | 32 | {Gd^T(3)}-GK([Gly-Gd^T(3)])WHCTTYFPHH[Bip]CLYG (disulfide 5-14) [Compound ID 951] |
| 77 | – | {Gd^T″}-GK([Gly-Gd^T″])WHCTTYFPHH[Dip]CLYG (disulfide 5-14 (inferred); not fully specified) [Compound ID 968] |
| – | 13 | {Gd^T″}-GQWHCTTDFPH[Dap]YCLYG (disulfide 5-14) [Compound ID 886] |
| 11 | – | {Gd^T″}-GK([Gly-Gd^T″])WHCTTYFPHHYCL[Dip]G (disulfide 5-14 (inferred); not fully specified) [Compound ID 967] |
| 14 | – | {Gd^T″}-GK([Gly-Gd^T″])WH[dC]TTK(Gd^T″)FPHHYCLY[Bip] (disulfide 5-14) [Compound ID 1019] |
| – | 47 | {Gd^T″}-K(Gd^T″)K(Lys(Gd^T)Gd^T)WHCYTYFPHHYCVYG (disulfide 5-14 (inferred); reading uncertain) [Compound ID 1003] |
| – | 1 | {Gd^T″}-GQWHCT[dR]RFPHHYCLYG (disulfide 5-14 (inferred); not fully specified (C-terminus)) [Compound ID 900] |
| – | 3 | {Gd^T″}-GQWHCT[dS]RFPHHYCLYG (disulfide 5-14 (inferred); not fully specified (C-terminus)) [Compound ID 898] |
| – | 0 | {Gd^T″}-GQWHCTTD[Tyr(3-Cl)]PHHYCLYG (disulfide 5-14 (inferred); not fully specified (C-terminus)) [Compound ID 895] |
| 9 | – | {Gd^T″}-GQWHCTDRFPHHYCLYG (disulfide 5-14 (inferred)) [Compound ID 936] |
| 14 | – | {Gd^T″}-GK([Gly-Gd^T″])WHCTTLFPHHVCLYG (disulfide 5-14 (inferred)) [Compound ID 966] |
| 9 | – | Cbz-GQWHCTK(Gd^T″)RFPHHYCLYG (disulfide 5-14 (inferred)) [Compound ID 940] |
| – | 2 | {Gd^T″}-GQWHCTTRFPHH[dT]CLYG (disulfide 5-14 (inferred); not fully specified (C-terminus)) [Compound ID 905] |
| – | 1 | {Gd^T″}-GQWHCT[dN]RFPHHYCLYG (disulfide 5-14 (inferred); not fully specified (C-terminus)) [Compound ID 897] |
| – | 2 | {Gd^T″}-GQWHCTTRFPHH[dR]CLYG (disulfide 5-14 (inferred); not fully specified (C-terminus)) [Compound ID 902] |
| 0 | – | {Gd^T(3)}-GQWHCTTRFPHH[d1Nal]CLYG (disulfide 5-14; not fully specified (C-terminus)) [Compound ID 904] |
